Laboratory results reported in publication PMC3088709, “Phosphorylation of the Yeast γ-Tubulin Tub4 Regulates Microtubule Function” (PLoS ONE, 2011).

B1: Tub4 (yeast gamma-tubulin), wild type, untagged [S. cerevisiae] / Spc110 [S. cerevisiae (endogenous in yeast cells)] (parent)
chain 1: MGGEIITLQAGQCGNHVGKFLWSQLAKEHAIGTDGLSQLPDSSTERDDDTKPFFRENSRNKFTPRAIMMDSEPSVIADVENTFRGFFDPRNTWVASDGASAGNSWANGYDIGTRNQDDILNKIDKEIDSTDNFEGFQLLHSVAGGTGSGLGSNLLEALCDRYPKKILTTYSVFPARSSEVVVQSYNTILALRRLIEDSDATVVFDNASLLNISGKVFRNPNIDLQHTNQLISTIISSVTNSIRFPSYMYSSMSSIYSTLIPSPELHFLSPSFTPFTSDYIHDDIAHKGHSSYDVMLDLLDPSNSLVSTAMNNPTYFNVYNTIIGNVEPRQISRAMTKLQQRIKFPSWSSSAMHVNIGRRSPYLPLQPNENEVSGMMLSNMSTVVNVFENACNTFDKVFAKGAFLNNYNVGDLFQSMQNVQDEFAESREVVQSLMEDYVAAEQDSYLDDVLVDDENMVGELEEDLDADGDHKLV
chain 2: MDEASHLPNGSLKNMEFTPVGFIKSKRNTTQTQVVSPTKVPNANNGDENEGPVKKRQRRSIDDTIDSTRLFSEASQFDDSFPEIKANIPPSPRSGNVDKSRKRNLIDDLKKDVPMSQPLKEQEVREHQMKKERFDRALESKLLGKRHITYANSDISNKELYINEIKSLKHEIKELRKEKNDTLNNYDTLEEETDDLKNRLQALEKELDAKNKIVNSRKVDDHSGCIEEREQMERKLAELERKLKTVKDQVLELENNSDVQSLKLRSKEDELKNLMNELNELKSNAEEKDTQLEFKKNELRKRTNELNELKIKSDEMDLQLKQKQNESKRLKDELNELETKFSENGSQSSAKENELKMLKNKIAELEEEISTKNSQLIAKEGKLASLMAQLTQLESKLNQRDSQLGSREEELKKTNDKLQKDIRIAREETVSKDERIIDLQKKVKQLENDLFVIKKTHSESKTITDNELESKDKLIKILENDLKVAQEKYSKMEKELKEREFNYKISESKLEDEKTTLNEKISNLAAENSQLKNKIEDNSTATHHMKENYEKQLESLRKDIEEYKESAKDSEDKIEELKIRIAENSAKVSEKRSKDIKQKDEQISDLTQNLKLQEDEISSLKSIIDRYKKDFNQLKSEQSNIQHDLNLQILNLENKLIESEDELKSLRDSQKIEIENWKRKYNNLSLENDRLLTEKESASDKEREISILNRKLDEMDKEKWNLQESKEKYKRELQKVITANDRLRREKEELNENSNNIRIMEDKMTRIKKNYLSEITSLQEENRRLEERLILNERRKDNDSTMQLNDIISYYKLKYHSEVRHNNDLKVINDYLNKVLALGTRRLRLDTRKGEHSLNISLPDDDELDRDYYNSHVYTRYHDYEYPLRFNLNRRGPYFERRLSFKTVALLVLACVRMKRIAFYRRSDDNRLRILRDRIESSSGRISW

Variants of: B1
Experiment: co-immunoprecipitation (anti-HA IP of Spc97-3HA), quantified immunoblot
Conditions: with Spc110 [S. cerevisiae (endogenous in yeast cells)], Indirect: Spc110 recovered in Spc97-3HA IP from tub4-S100E cells, TUB4-AID SPC97-3HA cells, IAA for 2 h at 30°C, normalized to precipitated Spc97-3HA, read off a plot

Variant	ratio to parent [RI]
chain 1 S100E	0.76

Same assay, conditions: with Spc110 [S. cerevisiae (endogenous in yeast cells)], Indirect: Spc110 recovered in Spc97-3HA IP from tub4-S360D cells, TUB4-AID SPC97-3HA cells, IAA for 2 h at 30°C, normalized to precipitated Spc97-3HA, read off a plot

Variant	ratio to parent [RI]
chain 1 S360D	0.28

Same assay, conditions: with Spc110 [S. cerevisiae (endogenous in yeast cells)]; Indirect: Spc110 recovered in Spc97-3HA IP from tub4-S74E cells; TUB4-AID SPC97-3HA cells, IAA for 2 h at 30°C; normalized to precipitated Spc97-3HA; parent: 1; read off a plot

Variant	ratio to parent [RI]
chain 1 S74E	1.3
